Laboratory results: patent US20210220471A1, “METHODS OF USING PHARMACOLOGIC INHIBITORS OF TYPE 2 CYTOKINE SIGNALING TO TREAT OR PREVENT PANCREATIC CANCER” (Memorial Sloan Kettering Cancer Center, priority 2018, published 2021)
Entries after “also recorded” stand apart in the source; their conditions may differ.

What was measured:
[1] = system: mutant Kras pancreatic organoids; experiment: Growth of mutant Kras pancreatic organoids with recombinant IL-4 / IL-13 (Cell Titer Glo); type: cell-based, mouse; details: pre-malignant mutant Kras G12D; for proliferation (Cell Titer Glo): 6-day growth; for proliferation (Cell Titer Glo) after cytokine pre-treatment: pre-treatment with the cytokines during 2 weeks
Description: Isolation, culture and genetic manipulation of pancreatic organoids. To isolate untransformed ductal organoids for the transplantable PDAC tumorigenesis model, normal pancreas from LSL-KrasG12D mice (pure Bl/6N background) minced and digested with 0.012% collagenase XI (C9407, Sigma-Aldrich) and 0.012% Dispase (17105041, Life Technologies) in HBSS with Mg^2+ and Ca^2+ (14025076, Thermo Fisher Scientific) at 37° C. for a maximum of 30 mins. The material was further digested with TrypLE (GIBCO) for 5 min at 37° C., washed twice with DMEM/F12 (Life Technologies) supplemented with 2 mM glutamine and penn-strep, embedded in growth factor reduced matrigel (Corning), and cultured in complete medium, as described in Boj et al 2014. For activation of mutant Kras, organoids haroburing the LSL-KrasG12D allele were transduced with Ad-mCherry-Cre (Vector Biolabs), and Cherry^+ cells were sorted from single cell organoid suspension by flow cytometry 36h thereafter. Resulting clones were assessed for LSL-KrasG12D recombination by genotyping PCR in genomic DNA using the following primers: 5′ gtc ttt ccc cag cac agt gc 3′ (SEQ ID NO: 19), 5′ ctc ttg cct acg cca cca get c 3′ (SEQ ID NO: 20), and 5′ agc tag cca cca tgg ctt gag taa gtc tgc a 3′ (SEQ ID NO: 21). Validated Cre-recombined clones were then subjected to CRISPR-based inactivation of Trp53 using the PX458 vector (Addgene #48138) and gRNA […] sequence (SEQ ID NO: 22). PX458-sgTrp53 was transduced into organoids by transient transfection using the spinoculation method previously described (O'Rourke et al., 2017), with the modification of using the Effectene transfection reagent (Qiagen). PX458-sgTrp53 introduced cells were sorted by GFP positivity with flow cytometry 36h post-transfection. p53 null status of targeted clones was validated by western blot, using anti-p53 antibody (CMS, Leica Microsystem) and anti-β-actin-peroxidase antibody (Sigma-Aldrich) as normalization control.
This activation was specific (i.e. not observed for many other cytokine receptors, nor during normal pancreas regeneration) and is associated with the emergence of multiple de novo ATAC peaks (FIG. 14B). Preliminary gain-of-function experiments in mutant Kras pancreatic organoids indicate that these druggable Th2 cytokine receptors are functional and modulate organoid growth in vitro (FIG. 14C).

[2] = system: Kras-wild type (C-GEMM) mice; experiment: Recombinant Il-33 treatment of Kras wild-type (C-GEMM) mice; type: in vivo, mouse; details: 21 days after treatment; for pancreas histology (H&E, Alcian Blue): same dosing
Description: (§1) To compare the effects of tissue injury in the transcriptional and chromatin accessibility landscapes of mutant Kras-expressing or Kras wild-type pancreatic epithelial cells, KC;RIK (p48-Cre;RIK;LSLKrasG12D) or C;RIK (p48-Cre;RIK) male mice were treated with 8 hourly intraperitoneal injections of 80 μg/kg caerulein (Bachem) or PBS for 2 consecutive days, using littermates when possible. To characterize invasive disease, pancreatic ductal adenocarcinoma (PDAC) cells were isolated from cancer lesions arising in autochthonous transgenic models (KPflC;RIK (p48Cre;RIK;LSL-KrasG12D;p53fl/^+) that were macro-dissected away from pre-malignant tissue. As an orthogonal approach, C57Bl/6 female mice (Harlan) were subjected to for orthotopic transplantations with syngeneic ductal organoids harboruing mutant Kras and inactivated Trp53 gene (see below). Prior to transplantation, organoid cultures were dissociated with TrypLE (Gibco) after mechanical dissociation by pipetting and 1-2×10^5 cells in serum-free advanced DMEM/F12 (Life Technologies) supplemented with 2 mM glutamine and penn-strep were mixed 1:1 with growth factor reduced matrigel (Corning) and injected into the exposed pancreas of 8-10 weeks old C57B16/N mice using a Hamilton syringe fitted with a 26 gauge needle. For treatment with recombinant Il-33, 5 weeks-old C or KC mice were injected intraperitoneally once daily doses with 1 ug of murine recombinant Il-33 (#580504, R&D Systems) or vehicle (PBS) for 5 consecutive days.
(§2) Immunofluorescence, immunohistochemistry and histological analyses. Tissues were fixed overnight in 10% neutral buffered formalin (Richard-Allan Scientific), embedded in paraffin and cut into 5 μm sections. Slides were heated for 30 min at 55° C., deparaffinized, rehydrated with an alcohol series and subjected to antigen retrieval with citrate buffer (Vector Laboratories Unmasking Solution, H-3300) for 25 min in a pressure cooker set on high. Sections were treated with 3% H2O2 for 10 min followed by a wash in dionized water (for immunohistochemistry only), washed in PBS, then blocked in PBS/0.1% Triton X-100 containing 1% BSA. Primary antibodies were incubated overnight at 4° C. in blocking buffer. The following primary antibodies were used: mKate2 (Evrogen, AB233), GFP (ab13970, Abcam and 2956S, Cell Signaling Technology), Brd4 (HPA015055, Sigma-Aldrich), Myc (ab32072, Abcam), Cpa1 (R&D, AF2765), Clusterin (SCBT sc-6419), SOX9 (Millipore AB553), Amylase (sc-31869, Santa Cruz), Krt19 (Troma III, Developmental Studies Hybridoma Bank) and Il-33 (AF3626, R&D). For mKate2, GFP and cMyc immunohistochemistry, Vector ImmPress HRP kits and ImmPact DAB (Vector Laboratories) were used for secondary detection. […]

[3] = system: Kras mutant (KC-GEMM) mice; experiment: Recombinant Il-33 treatment of Kras mutant (KC-GEMM) mice; type: in vivo, mouse; details: for expression of cell fate / PanIN markers (Agr2, Muc6, Dclk1, Cpa1, Sox9) in mKate2+ pancreatic epithelial cells: KC mice, qRT-PCR, 21 days after treatment; for mutant KRAS-driven tumorigenesis / mucinous PanIN lesions (H&E, Alcian Blue, mKate2) / expansion of Dclk1+ cancer stem cells (Dclk1 immunofluorescence): KC-GEMM mice, 5 consecutive days; for mutant KRAS-driven tumorigenesis / mucinous PanIN lesions (H&E, Alcian Blue, mKate2): 1 ug/mouse i.p. once daily, analyzed 21 days thereafter, vs vehicle (PBS); for expansion of Dclk1+ cancer stem cells (Dclk1 immunofluorescence): 1 ug/mouse, day 21 post-treatment
Description: as §1
as §2, with “detection. Tissues were then counterstained with Haematoxylin or when indicated Alcian blue (pH 2.5) and 0.1% Nuclear Fast Red Solution, dehydrated and mounted with Permount (Fisher). The immunohistochemistry detection of Brd4 was performed at the Molecular Cytology Core Facility of Memorial Sloan Kettering Cancer Center using Discovery XT processor (Ventana Medical Systems-Roche). The tissue sections were blocked for 30 min in 10% normal goat serum, 2% BSA in PBS. A rabbit polyclonal anti-Brd4 antibody (HPA015055, Sigma-Aldrich) was used in 1 ug/ml (1:100) concentrations. The incubation with the primary antibody was done for 6 hours, followed by 60 minutes incubation with biotinylated goat anti-rabbit IgG (PK610, Vector labs) in 5.75 ug/mL concentration. Blocker D, Streptavidin-HRP and DAB detection kit (760-124, Ventana Medical Systems-Roche) were used according to the manufacturer instructions. Slides were counterstained with Hematoxylin (760-2021, Ventana), Bluing Reagent (760-2037, Ventana) and coverslipped with Permount (Fisher Scientific).” for “detection.”

Q: Which results are given for IL-13: recombinant IL-13 cytokine?
A: proliferation (Cell Titer Glo) [1]: pro-proliferative effects; proliferation (Cell Titer Glo) after cytokine pre-treatment [1]: further enhanced

B1: recombinant IL-4: recombinant IL-4 cytokine (protein, UniProt P05112 25-153, looked up)
Interleukin-4: HKCDITLQEIIKTLNSLTEQKTLCTELTVTDIFAASKNTTEKETFCRAATVLRQFYSHHEKDTRCLGATAQQFHRHKQLIRFLKRLDRNLWGLAGLNSCPVKEANQSTLENFLERLKTIMREKYSKCSS
Q: What does the source list for B1?
A: proliferation (Cell Titer Glo) [1]: pro-proliferative effects; proliferation (Cell Titer Glo) after cytokine pre-treatment [1]: further enhanced

B2: rIl-33: murine recombinant Il-33 (#580504, R&D Systems) (protein, UniProt Q8BVZ5 1-266, looked up)
Interleukin-33: MRPRMKYSNSKISPAKFSSTAGEALVPPCKIRRSQQKTKEFCHVYCMRLRSGLTIRKETSYFRKEPTKRYSLKSGTKHEENFSAYPRDSRKRSLLGSIQAFAASVDTLSIQGTSLLTQSPASLSTYNDQSVSFVLENGCYVINVDDSGKDQEQDQVLLRYYESPCPASQSGDGVDGKKLMVNMSPIKDTDIWLHANDKDYSVELQRGDVSPPEQAFFVLHKKSSDFVSFECKNLPGTYIGVKDNQLALVEEKDESCNNIMFKLSKI
Q: How did the “expression of cell fate / PanIN markers in mKate2+ pancreatic epithelial cells” value [2] turn out when B2 was run?
A: no detectable effects

Q: And the “expression of cell fate / PanIN markers in mKate2+ pancreatic epithelial cells” value ([2]; listed as recombinant IL-33)?
A: no effect

Q: And the “pancreas histology (H&E, Alcian Blue)” value [2]?
A: no detectable effects; also recorded: retain normal architecture

Q: And the “pancreas histology (H&E, Alcian Blue)” value ([2]; listed as recombinant IL-33)?
A: no effect

Q: What about the “expression of cell fate / PanIN markers (Agr2, Muc6, Dclk1, Cpa1, Sox9) in mKate2+ pancreatic epithelial cells” value [3] of the same molecule?
A: selective effects

Q: What about the “expression of cell fate / PanIN markers (Agr2, Muc6, Dclk1, Cpa1, Sox9) in mKate2+ pancreatic epithelial cells” value ([3]; listed as recombinant IL-33) of the same molecule?
A: accelerates mutant KRAS-driven tumorigenesis

Q: What about the “mutant KRAS-driven tumorigenesis / mucinous PanIN lesions (H&E, Alcian Blue, mKate2)” value [3] of the same molecule?
A: sufficient to trigger many of the tumor-promoting outputs of injury in the mutant Kras setting; also recorded: accelerated ADR with development of mucinous lesions

Q: What about the “mutant KRAS-driven tumorigenesis / mucinous PanIN lesions (H&E, Alcian Blue, mKate2)” value ([3]; listed as recombinant IL-33) of the same molecule?
A: promoted tumorigenesis; also recorded: accelerates mutant KRAS-driven tumorigenesis; also recorded: enhanced tumorigenesis

Q: And the “expansion of Dclk1+ cancer stem cells (Dclk1 immunofluorescence)” value ([3]; listed as Recombinant IL-33)?
A: sufficient to drive expansion of Dclk1^+ cancer stem cells in vivo

Q: What about the “expansion of Dclk1+ cancer stem cells (Dclk1 immunofluorescence)” value ([3]; listed as recombinant IL-33) of the same molecule?
A: cancer stem cell expansion
